Data taken from the supplement of paper PMC11865577.

Columns and labels:
Assay in all cases: pull-down binding Z-score (relative to library population); higher = stronger binding
Settings in all cases: RNA library: Library-2
[1] = test system: TO-N3-2 (biotin conjugate)
Summary of the method: (§1)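 A heat-folded, dye-end-labelled (Cy5 or Cy3) RNA library (1 μg, phosphate/NaCl/KCl buffer) was exposed for 60 min at 25 °C to streptavidin beads holding 100 pmol of biotin-conjugated small molecule. RNA retained on the beads was eluted in hot SDS and hybridised to a DNA barcode microarray for 20 h at 55.5 °C. Binding scores were Z-scores against the library mean and standard deviation, calculated after subtracting beads alone and taking trimmed means of replicate probes.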

[2] = test system: TO-3-N3 (biotin conjugate)
Summary of the method: as §1

[3] = test system: TO-N3 (biotin conjugate)
Summary of the method: as §1

[4] = test system: TO-3-N3-2 (biotin conjugate)
Summary of the method: as §1

Sequence	pull-down binding Z-score [1]	pull-down binding Z-score [2]	pull-down binding Z-score [3]	pull-down binding Z-score [4]
CCCAUUGGAGAGUCCCCCAAAGGAGUGGAGGAAAGUUCCAUUGGG [IAV_invivo_PA_3_Motif_26+IAV_invivo_PA_3_Motif_26]	0.298	-0.0565	-0.0467	-0.0971
GGAGAGUGUUCAGACAUUCUUU [SHAPE_invitro_SARS-CoV-2_Motif_44]	-0.602	-0.535	-0.508	-0.361
AACAAAUGUGUCAAUUUCAACUUCAAUGGUUUAACAGGCACAGGUGUU	-0.968	-0.698	-0.754	-0.221
ACAAGAGGGUGUGGUUGAUUAUGGUGCUAGAUUUUACUUUUACACCAGUAAAACAACUGUAGCGUCACUUAUCAACACACUUAACGAUCUAAAUGAAACUCUUGU	0.277	0.233	0.447	0.984
CACUCAAAGGCGGUGCACCAACAAAGGUUACUUUUGGUGAUGACACUGUGAUAGAAGUG [DMSMaPseq_invitro_SARS-CoV-2_Motif_50]	-0.0256	-0.531	-0.234	-0.205
UCCAAACGCAAGCUUCGAUAAUUUUAAGUUUGUAUGUGA [SHAPE_invivo_SARS-CoV-2_Motif_125]	-0.684	-0.388	-0.589	-0.0327
UAUUGAAAUCAAUA	-1.72	-0.553	-0.987	-0.77
GAUUUUGGGACUACCAACUC	-0.581	-0.579	-0.683	-0.384
UCAGUUGUAAACAUUCAAAAAGAAAUUGA	0.216	0.0975	0.0554	0.407
UGAAUUAGACUCAUUCA [DMSMaPseq_invitro_SARS-CoV-2_Motif_447]	-0.825	-0.55	-0.643	-0.45
CCCCACUACAAUUGGGG [IAV_invivo_HA_4_Motif_4+IAV_invivo_HA_4_Motif_4]	-1.27	0.245	-0.0989	-0.517
CAAUGUGUGAUAUCAGACAACUACUAUUUGUAGUUGAAGUUGUUGAUAAGUACUUUG [DMSMaPseq_invitro_SARS-CoV-2_Motif_268]	-0.156	-0.462	0.105	-0.487
CUGGGGGCAAUCAGUUUCUGG [IAV_invivo_HA_4_Motif_20+IAV_invivo_HA_4_Motif_20]	-0.107	1.05	0.946	-0.0228
UUACACCACUGGGCAUUGAUUUAGAUGAGUGGAGUAUGGCUACAUACUACUUAUUUGAUGAGUCUGGUGAGUUUAA	-1.04	-0.972	-1.09	-0.516
GGGUACGACUUUGAAAGGGAGGGAUACUCUCUAGUCGGAAUAGACCC [IAV_invivo_NP_5_Motif_16+IAV_invivo_NP_5_Motif_16]	0.638	0.779	0.986	0.439
GGGAGCAAACCC [IAV_invivo_PB1_2_Motif_31+IAV_invivo_PB1_2_Motif_31]	0.11	-0.179	-0.425	-0.259
UACAUGUGUUGGUAGCGAUAAUGUUACUGACUUUAAUGCAAUUGCAACAUGUG [DMSMaPseq_invitro_SARS-CoV-2_Multi_49_ComplexLevel_1]	-0.909	-0.662	-0.826	0.0202
CUCCAGCACGGAG [IAV_invivo_PB2_1_Motif_21+IAV_invivo_PB2_1_Motif_21]	-1.17	-0.457	-0.877	-0.425
CUAGUUGUGAUGCAAUCAUGACUAG	-1.39	-0.351	-0.883	-0.444
GCUUUCUUUGGC [IAV_invivo_NS1_NEP_8_Motif_2+IAV_invivo_NS1_NEP_8_Motif_2]	-1.09	-0.0308	-0.43	-0.505
GGAAAUGAUUCC [IAV_invivo_PB2_1_Motif_4+IAV_invivo_PB2_1_Motif_4]	-1.3	-0.59	-1.05	-0.712
GUACCAAAGGUGC [IAV_invivo_PB1_2_Motif_35+IAV_invivo_PB1_2_Motif_35]	-0.382	-0.101	-0.215	-0.26
UAGUGAUGAAGUUGCGAGAGACUUGUCACUA	-0.661	-0.736	-0.688	-0.441

Sequence	pull-down binding Z-score [1]	pull-down binding Z-score [2]	pull-down binding Z-score [3]	pull-down binding Z-score [4]
GAAAAGAACAAUCAAGGGUACACACCACUGGUUGUUACUCACAAUUUUGACUUCACUUUUAGUUUUAGUCCAGAGUACUCAAUGGUCUUUGUUCUUUUU	0.0117	-0.824	-0.121	-0.0313
GGUCAAAUCAAUGAUAUGAUUUUAUC	-1.3	-0.859	-1.26	-0.505
CUUGGAAAACUUCAAG	-0.863	-0.101	-0.471	-0.265
UUAAGGUGUUUACAACAGUAGACAACAUUAA [DMSMaPseq_invitro_SARS-CoV-2_Motif_93]	-1.08	-1.01	-1.08	-0.382
GGGAGAUAACAUUCC [IAV_invivo_M1_M2_7_Motif_7+IAV_invivo_M1_M2_7_Motif_7]	-0.107	-0.149	-0.16	-0.0296
GCUGUUUAAUAGGGGCUGAACAUGUCAACAACUCAUAUGAGUGUGACAUACCCAUUGGUGCAGGUAUAUGCGCUAGUUAUCAGACUCAGACUAAUUCUCCUCGGC	-0.00417	-0.351	0.298	0.183
GCUGGUAAUGUUCAACUCAGGGUUAUUGGACAUUCUAUGC [SHAPE_invivo_SARS-CoV-2_Motif_203]	-0.0925	-0.362	-0.313	-0.104
CACAUCAGUAGUCUUACUCUCAGUUUUGCAACAACUCAGAGUAGAAUCAUCAUCUAAAUUGUG [DMSMaPseq_invitro_SARS-CoV-2_Motif_209]	-0.741	-0.736	-0.843	-0.352
AUCUUCUGCAGGCUGCUUACGGUUUCGUCCGUGUUGCAGCCGAUCAUCAGCACAUCUAGGUUUUGUCCGGGUGUGACCGAAAGGUAAGAU [DMSMaPseq_invitro_SARS-CoV-2_Multi_2_ComplexLevel_1]	-0.919	-0.599	-1.06	-0.451
GGGGCGUUUAUGCAACCC [IAV_invivo_PB1_2_Motif_33+IAV_invivo_PB1_2_Motif_33]	-0.334	-0.754	-0.497	-0.277
GGUGACAACAACC [IAV_invivo_M1_M2_7_Motif_11+IAV_invivo_M1_M2_7_Motif_11]	-0.457	-0.283	-0.366	-0.31
GAUGUAGAAUUGUUUGAAAAUAAAACAACAUU	-0.444	-0.783	-0.878	-0.136
GCACUAUUGCCUUUGGAGGCUGUGUGU [SHAPE_invivo_SARS-CoV-2_Motif_29]	-0.0377	0.554	0.415	-0.236
UGUACAUCUUCUUUGCAUCAUUUUAUUAUGUAUGGAAAAGUUAUGUGCA [SHAPE_invitro_SARS-CoV-2_Motif_147]	-0.553	-0.791	-0.813	-0.347
GCUAGCUCUUGGAGGUUCCGUGGCUAUAAAGAUAACAGAACAUUCUUGGAAUGCUGAUCUUUAUAAGCUCAUGGGACACUUCGCAUGGUGGACAGC	0.936	0.837	0.974	0.121
GAGUUACACAGAAUGUUCUCUAUGAGAACCAAAAAUUGAUUGCCAACCAAUUUAAUAGUGCUAUUGGCAAAAUUCAAGACUC	-0.226	-0.57	-0.581	0.305
GUGCCAUCAAAUUGGAUGACAAAGAUCCAAAUUUCAAAGAUCAAGUCAUUUUGCUGAAUAAGCAUAUUGACGCAU	-0.159	-0.675	-0.411	-0.165
UAGAUGCUGUAAAUUUACUUACUAAUAUGUUUACACCACUAAUUCAACCUAUUGGUGCUUUGGACAUAUCAGCAUCUA [DMSMaPseq_invitro_SARS-CoV-2_Multi_30_ComplexLevel_1]	-0.105	0.39	0.0803	-0.0621
GGUAAAAUUGUUAAUAAUUGGUUGAAGCAGUUAAUUAAAGUUACACUUGUGUUCCUUUUUGUUGCUGCUAUUUUCUAUUUAAUAACACC [DMSMaPseq_invitro_SARS-CoV-2_Motif_156]	-1.04	-0.485	-0.828	-0.271
GGGCUCAGAAUAUGACUAUGUCAUAUUCACUCAAACCACUGAAACAGCUC [SHAPE_invitro_SARS-CoV-2_Motif_328]	-0.4	-0.515	-0.428	0.0239
UGAUGGUGUUCCAUUUGUAGUUUCAACUGGAUACCACUUCA [DMSMaPseq_invitro_SARS-CoV-2_Motif_261]	-0.82	-0.0305	-0.387	-0.236
GGAAGACCUUAAAUUCCCUCGAGGACAAGGCGUUCC	-0.19	-0.756	-0.658	-0.381
